Measured values taken from patent publication US8697062B2, “Compositions and methods for ribonuclease-based therapeutics” (Quintessence Biosciences, Inc., priority 2007, dated 2014).

Legend:
[1] = test system: DU145 human prostate cancer cells; assay: xenograft model of prostate cancer (DU145) in nude mice; assay type: in vivo
Experimental: Prostate cancer cells (DU145) were implanted into the right rear flank of 5-6 week old male homozygous (nu/nu) nude mice (Harlan). Tumors were allowed to grow to an average size of ≧75 mm^3 before treatments were initiated. Animals of each tumor type, with the properly-sized tumors, were divided into treatment groups. All the test compounds were diluted in PBS (drug vehicle), and one set of animals treated with vehicle (PBS) on the schedule with greatest frequency in the current study served as the negative control. All RNase treatments in the xenograft model are administered by intraperitoneal injection. Treatment with all agents is ongoing throughout the entire experiment (e.g., a 6 week long experiment with 1×wk dosing results in 6 total doses). Tumors were measured twice weekly using calipers. Tumor volume (mm^3) was determined by using the equation 4. The percent tumor growth inhibition was calculated using equation 5.

[2] = test system: A549 lung carcinoma cells; assay: xenograft model of non-small cell lung cancer (A549) in nude mice; assay type: in vivo; conditions: FIG. 9
Experimental: Cells from a non-small cell lung cancer cell line (A549) were grown in nine T175 flasks in F12K media and 10% fetal calf serum until the cells were confluent. 4.5×10^6 cells ([…]) were injected into the right rear flank of 4-5 week old male homozygous (nu/nu) nude mice (Harlan, Madison Wis.). Tumors were allowed to grow to an average size of ≧75 mm^3 before treatments were initiated. Animals of each tumor type, with the properly-sized tumors, were divided into treatment groups, including one set of animals treated weekly with vehicle (phosphate buffered saline, PBS). The vehicle and the test agents were all administered by intraperitoneal injection. Each animal was weighed twice a week during treatment. The tumors were measured twice weekly using calipers. Tumor volume (mm^3) was determined by using the formula for an ellipsoid sphere:
[formula] The percent tumor growth inhibition was calculated using the formula:
[formula] […] The efficacy is similar to that of an approved cancer drug, cisplatin.

[3] = target: T1, human RI (Homo sapiens, UniProt P13489); assay: Kd^c | nM
T1 sequence (P13489 whole entry, looked up): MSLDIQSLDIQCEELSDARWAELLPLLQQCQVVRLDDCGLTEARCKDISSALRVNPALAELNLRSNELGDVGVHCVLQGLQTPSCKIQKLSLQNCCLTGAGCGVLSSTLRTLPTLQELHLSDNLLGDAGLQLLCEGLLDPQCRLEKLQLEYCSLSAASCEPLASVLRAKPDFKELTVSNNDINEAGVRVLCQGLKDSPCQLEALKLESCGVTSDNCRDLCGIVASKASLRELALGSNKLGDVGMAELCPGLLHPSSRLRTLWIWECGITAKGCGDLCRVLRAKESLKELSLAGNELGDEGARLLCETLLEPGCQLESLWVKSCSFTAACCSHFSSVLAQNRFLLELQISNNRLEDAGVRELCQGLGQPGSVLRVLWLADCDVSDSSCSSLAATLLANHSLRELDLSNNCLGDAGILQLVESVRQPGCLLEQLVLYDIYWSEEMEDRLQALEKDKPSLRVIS
Experimental: Table printed on a drawing sheet, FIGURE 2
Head of the field: Kd^c | nM
Footnotes: ^aValues of Tm (± 2 °C) were determined in PBS by UV spectroscopy. The Tm values for G88R RNase and ONC in PBS are from Leland et al. (1998, Proc. Natl. Acad. Sci. 98:10407-10412). / ^bValues of kcat/KM (± SE) are for the catalysis of 6-FAM~dArU(dA)2~6-TAMRA cleavage at room temperature in 0.10 M MES-NaOH buffer (pH 6.0) containing NaCl (0.10 M) except for the kcat/KM (± SE) of ONC . The kcat/KM value for ONC is for the catalysis of 6-FAM~dArUdGdA~6-TAMRA cleavage at room temperature in 0.020 M MES-NaOH buffer (pH 6.0) containing NaCl (0.010 M). / ^cValues of Kd (± SE) are for the complex with human RI at room temperature. The Kd value for RNase A is from Lee et al. (1989, Biochem. 28:225-230). The Kd value for G88R RNase A is from Lavis et al. (2007, Anal. Biochem. 79:6775-6782). The Kd value for ONC is an estimate from Wu et al. (1993, J. Biol. Chem. 268:10686-10693). / ^dValues of IC50 (± SE) are for incorporation of [methyl-^3H]thymidine into the DNA of K-562 cells. […]
First copying reader's note: The table body is printed very coarsely, so many digits are uncertain; the mark ^h in the (kcat/KM)cyto column has no footnote on the sheet, and the IC50 footnote is lettered d.
Where the first naming reader finds the target: footnote: Values of Kd (± SE) are for the complex with human RI at room temperature.

[4] = target: T2, hRI (Homo sapiens, UniProt P13489); conditions: value used as basis of the competition assay; Rutkoski et al., 2005; cited from earlier work
T2 sequence (P13489 1-461): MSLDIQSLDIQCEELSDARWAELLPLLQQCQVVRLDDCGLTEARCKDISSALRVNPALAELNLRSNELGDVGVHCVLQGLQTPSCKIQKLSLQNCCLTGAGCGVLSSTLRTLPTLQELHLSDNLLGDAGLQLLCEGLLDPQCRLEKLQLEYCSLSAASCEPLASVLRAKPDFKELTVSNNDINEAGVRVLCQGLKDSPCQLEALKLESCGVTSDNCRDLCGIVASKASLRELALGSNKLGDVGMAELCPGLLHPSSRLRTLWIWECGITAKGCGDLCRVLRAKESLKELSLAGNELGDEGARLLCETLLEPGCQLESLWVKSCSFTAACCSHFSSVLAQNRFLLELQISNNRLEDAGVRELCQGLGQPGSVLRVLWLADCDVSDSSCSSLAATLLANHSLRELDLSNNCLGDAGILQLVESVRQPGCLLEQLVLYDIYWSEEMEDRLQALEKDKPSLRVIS

In the case of `CC(=O)O[C@@]12CO[C@@H]1C[C@H](O)[C@@]1(C)C(=O)[C@H](O)C3=C(C)[C@@H](OC(=O)[C@H](O)[C@@H](NC(=O)OC(C)(C)C)c4ccccc4)C[C@@](O)([C@@H](OC(=O)c4ccccc4)[C@H]21)C3(C)C` [docetaxel, reference compound], the tumor volume ([1]; 8 mg/kg weekly, compared to a control, FIG. 5) is reported as “decrease tumor volumes to similar levels”.

In the case of `N.N.[Cl][Pt][Cl]` [cisplatin, reference compound], the “efficacy in reducing tumor volume” value ([2]; 6 mg/kg weekly, compared with 60 kDa mPEG2 G89C RNase 1) is reported as “similar”.

B1: 20 kDa mPEG2-G88C RNase A: G88C RNase A modified with 20 kDa-mPEG2 maleimide (branched) (conjugate, UniProt P61823 27-150, looked up, variant G88C)
Ribonuclease pancreatic: KETAAAKFERQHMDSSTSAASSSNYCNQMMKSRNLTKDRCKPVNTFVHESLADVQAVCSQKNVACKNGQTNCYQSYSTMSITDCRETCSSKYPNCAYKTTQANKHIIVACEGNPYVPVHFDASV
modifications: 20 kDa branched mPEG2 maleimide
In the case of B1, the tumor volume ([1]; 75 mg/kg, 1 time per week, intraperitoneal, FIG. 5) is reported as “reduce tumor volumes” and the Kd [3] is reported as 37 ± 2.4 nM.

B2: fluorophore-labeled G88R variant of RNase A: fluorophore-labeled G88R variant of RNase A used as probe in the ribonuclease-inhibitor binding assay (conjugate, UniProt P61823 27-150, looked up, variant G88R)
Ribonuclease pancreatic: KETAAAKFERQHMDSSTSAASSSNYCNQMMKSRNLTKDRCKPVNTFVHESLADVQAVCSQKNVACKNGQTNCYQSYSTMSITDCRETRSSKYPNCAYKTTQANKHIIVACEGNPYVPVHFDASV
modifications: fluorophore label
In the case of B2, the Kd [4] is listed as 1.4 nM.

B3: 2 kDa mPEG-G88C RNase A: G88C RNase A modified with 2 kDa-mPEG maleimide (conjugate, UniProt P61823 27-150, looked up, variant G88C)
Ribonuclease pancreatic: KETAAAKFERQHMDSSTSAASSSNYCNQMMKSRNLTKDRCKPVNTFVHESLADVQAVCSQKNVACKNGQTNCYQSYSTMSITDCRETCSSKYPNCAYKTTQANKHIIVACEGNPYVPVHFDASV
modifications: 2 kDa mPEG maleimide
notes: G88C RNase A modified with 2 kDa-mPEG maleimide
In the case of B3, the “toxicity of the treatment as reflected by average body weight” value ([1]; 15 mg/kg twice weekly, intraperitoneal, FIG. 4B) is reported as “lack of toxicity”, the tumor volume ([1]; 15 mg/kg, 2 times per week, intraperitoneal, FIG. 4) is reported as “reduction in tumor volume over time” and the tumor volume ([1]; 15 mg/kg, 2 times per week, intraperitoneal, FIG. 4, listed as 2 kDa mPEG G88C RNase A) is reported as “reduce tumor volumes”.

B4: 60 kDa mPEG2-G89C RNase 1: G89C RNase 1 modified with 60 kDa-mPEG2 maleimide (branched) (conjugate, UniProt P07998 29-156, looked up, variant G89C)
Ribonuclease pancreatic: KESRAKKFQRQHMDSDSSPSSSSTYCNQMMRRRNMTQGRCKPVNTFVHEPLVDVQNVCFQEKVTCKNGQGNCYKSNSSMHITDCRLTNCSRYPNCAYRTSPKERHIIVACEGSPYVPVHFDASVEDST
modifications: 60 kDa branched mPEG2 maleimide
For B4, the tumor volume ([2]; 75 mg/kg weekly, intraperitoneal, versus control) was “decreases tumor volume”.
